From publication PMC12017343, “Extended repertoire of CXC chemokines acting as agonists and antagonists of the human and murine atypical chemokine receptor ACKR2” (Journal of Leukocyte Biology, 2025) come the findings set out here.

Sequences and labels used below:
T1: mouse ACKR2 N-terminally fused with the NanoLuc (mouse, UniProt O08707 1-378)
T1 construct: atypical chemokine receptor 2 (ACKR2), mouse; also called mACKR2; NanoLuc-ACKR2; source: HEK293T, stably expressing (pIRES-puromycin vector), on cells; not shown: NanoLuc, N-terminal, kept
T1 sequence (looked up): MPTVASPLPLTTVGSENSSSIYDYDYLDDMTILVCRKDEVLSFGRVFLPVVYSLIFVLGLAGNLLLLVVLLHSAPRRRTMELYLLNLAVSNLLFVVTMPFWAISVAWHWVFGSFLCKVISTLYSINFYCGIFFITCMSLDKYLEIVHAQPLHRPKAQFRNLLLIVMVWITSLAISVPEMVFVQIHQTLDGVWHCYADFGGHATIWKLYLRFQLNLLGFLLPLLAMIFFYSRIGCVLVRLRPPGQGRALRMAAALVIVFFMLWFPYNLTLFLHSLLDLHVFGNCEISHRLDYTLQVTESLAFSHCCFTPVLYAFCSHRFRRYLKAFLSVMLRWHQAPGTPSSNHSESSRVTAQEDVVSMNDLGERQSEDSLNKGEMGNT

B1: mouse CXCL11 (ligand, UniProt Q9JHH5 22-100, looked up)
chain: FLMFKQGRCLCIGPGMKAVKMAEIEKASVIYPSNGCDKVEVIVTMKAHKRQRCLDPRSKQARLIMQAIEKKNFLRRQNM
notes: CXCL11, mouse, native chemokine; source: bought: Protein Foundry
B2: mouse CXCL5 (ligand)
chain: APSSVIAATELRCVCLTVTPKINPKLIANLEVIPAGPQCPTVEVIAKLKNQKEVCLDPEAPVIKKIIQKILGSDKKKAKRNALAVERTASVQ
modifications: The paper prints no limits. The full-length mature chain after the signal peptide was taken for the 'native' chemokine (Protein Foundry); the commercial form could instead be GCP-2(1-78), 41-118, or …
B3: mouse CXCL10 (ligand, UniProt P17515 22-98, looked up)
chain: IPLARTVRCNCIHIDDGPVRMRAIGKLEIIPASLSCPRVEIIATMKKNDEQRCLNPESKTIKNLMKAFSQKRSKRAP
notes: CXCL10, mouse, native chemokine; source: bought: Protein Foundry

In this experiment the target is T1, mouse ACKR2 N-terminally fused with the …. Description: FRET or BRET; NanoBRET competition binding, concentration-response: increasing chemokine (highest 300 nM) against LIH222-AZ594 (5 nM for human, 10 nM for mouse) on HEK293T cells expressing NanoLuc-ACKR2; 2 h on ice. Conditions: one partner purified.
As to B1, the pIC50 was not above 7.04.
For the molecule B2, the pIC50 is not above 8.51.
The molecule B3 yielded a pIC50 not above 8.01.
